Data reported in paper PMC8870054.

Target: CLOBY biosensor (His6-mClover3-spacer with TEV site-Src SH4, unique and SH3 domains-spacer-mRuby3)
Experiment: dynamic light scattering; hydrodynamic radius at variable concentrations up to 275 uM, 25 °C; apparent; dimer to monomers

Kd: 700 µM
Substance: CLOBY biosensor (His6-mClover3-spacer with TEV site-Src SH4, unique and SH3 domains-spacer-mRuby3)
